# Source: the RNAGym collection of RNA variant scans (doi:10.1093/nar/gkz1192)
# B1: CPEB3 Ribozyme (parent)
# chain: UAACAGGGGGCCACAGCAGAAGCGUUCACGUCGCAGCCCCUGUCAGAUUCUGGUGAAUCUGCGAAUUCUGCUGUAUAUCUC
# Variants of: B1
# Test: self-cleavage, relative activity (ratio to wild type); higher = more cleavage; in vitro, sequencing
# Outline: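 Libraries of CPEB3 self-cleaving ribozyme mutants came from rounds of error-prone PCR and carried barcodes, which DNA sequencing matched to variants. In vitro transcription used T7 RNA polymerase at 37°C for 5 hours, with a further 15 min in DNase I before EDTA stopped the reaction; the ribozymes cleaved during both steps. The RNA was reverse transcribed with template switching and sequenced on Illumina. Relative activity is the cleaved/total read fraction of a variant divided by that of the unmutated ribozyme, averaged over three batches with at least 5 reads.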
row,Variant,self-cleavage
1,UAACAGGGGGCCACAGCAGAAGCGUACACGUCGCAGCCUCUGUCAGAUUCUGGUGAAUCUGCGAAUUCUGCUGUAUAUCUC [U26A C39U],0.56
2,UAACAGGGGGCCACAGCAGAAGCGUACACGUCGCAGCCCCUGUCAGAUUCUGGUGAAUCUACGAAUUCUGCUGUAUAUCUC [U26A G61A],0.73
3,UAACAGGGGGCCACAGCAGAAGCGUACACGUCGCAGCCCCUGUCAGAUUCUGGUGAAUCUCCGAAUUCUGCUGUAUAUCUC [U26A G61C],0.27
4,UAACAGGGGGCCACAGCAGAAGCGUACACGUCGCAGCCCCUGUCAGAUACUGGUGAAUCUGCGAAUUCUGCUGUAUAUCUC [U26A U49A],0.49
5,UAACAGGGGGCCACAGCAGAAGCGUACACGUCGCAGCCCCUGUCAGAUGCUGGUGAAUCUGCGAAUUCUGCUGUAUAUCUC [U26A U49G],0.41
6,UAACAGGGGGCCACAGCAGAAGCGUACACGUCGCAGCCCCUGUCAGAUCCUGGUGAAUCUGCGAAUUCUGCUGUAUAUCUC [U26A U49C],0.3
7,UAACAGGGGGCCACAGCAGAAGCGUACACGUCGCAGCCCCUGUCAGAUUCUGGUGAAUCUGCGAAUUCUGCUAUAUAUCUC [U26A G73A],0.96
8,UAACAGGGGGCCACAGCAGAAGCGUACACGUCGCAGCCCCUGUCAGAUUCUGGUGAAACUGCGAAUUCUGCUGUAUAUCUC [U26A U58A],0.23
9,UAACAGGGGGCCACAGCAGAAGCGUACACGUCGCAGCCCCUGUCAGAUUCUGGUGAAGCUGCGAAUUCUGCUGUAUAUCUC [U26A U58G],0.17
10,UAACAGGGGGCCACAGCAGAAGCGUACACGUCGCAGCCCCUGUCAGAUUCUGGUGAACCUGCGAAUUCUGCUGUAUAUCUC [U26A U58C],0.39
11,UAACAGGGGGCCACAGCAGAAGCGUACACGUCGCAGCCCCUGUGAGAUUCUGGUGAAUCUGCGAAUUCUGCUGUAUAUCUC [U26A C44G],0.94
12,UAACAGGGGGCCACAGCAGAAGCGUACACGUCGCAGCCCCUGUUAGAUUCUGGUGAAUCUGCGAAUUCUGCUGUAUAUCUC [U26A C44U],0.46
13,UAACAGGGGGCCACAGCAGAAGCGUACACGUCGCAGCCCCUGUCAGAUUCUGGUUAAUCUGCGAAUUCUGCUGUAUAUCUC [U26A G55U],0.77
14,UAACAGGGGGCCACAGCAGAAGCGUACACGUCGCAGCCCCUGUCAGAUUAUGGUGAAUCUGCGAAUUCUGCUGUAUAUCUC [U26A C50A],0.76
15,UAACAGGGGGCCACAGCAGAAGCGUACACGUCGCAGCCCCUGUCAGAUUUUGGUGAAUCUGCGAAUUCUGCUGUAUAUCUC [U26A C50U],0.47
16,UAACAGGGGGCCACAGCAGAAGCGUACACGUCGCAGCCCCUGUCAGAUUCUGAUGAAUCUGCGAAUUCUGCUGUAUAUCUC [U26A G53A],1
17,UAACAGGGGGCCACAGCAGAAGCGUACACGUCGCAGCCCCUGUCAGAUUCUGUUGAAUCUGCGAAUUCUGCUGUAUAUCUC [U26A G53U],1.04
18,UAACAGGGGGCCACAGCAGAAGCGUACACGUCGCAGCCCCUGUCAGAUUCUGGUGAAUCUGCGAAUUCUGCUGUAUAUUUC [U26A C79U],1.05
19,UAACAGGGGGCCACAGCAGAAGCGUACACGUCGCAGCCCCUGUCAGAUUCUGGUGAAUCUGCGAAUUCUGCUGUAUAUAUC [U26A C79A],1.07
20,UAACAGGGGGCCACAGCAGAAGCGUACACGUCGCAGCCCCUGUCAGAUUCUGGUGAAUCUGAGAAUUCUGCUGUAUAUCUC [U26A C62A],0.25
21,UAACAGGGGGCCACAGCAGAAGCGUACACGUCGCAGCCCCUGUCAGAUUCUGGUGAAUCUGUGAAUUCUGCUGUAUAUCUC [U26A C62U],0.21
22,UAACAGGGGGCCACAGCAGAAGCGUACACGUCGCAGCCCCUGUCAGAUUCUGGUGAAUCUGGGAAUUCUGCUGUAUAUCUC [U26A C62G],0.2
23,UAACAGGGGGCCACAGCAGAAGCGUACACGUCGCAGCCCCUGUCAGAUUCUUGUGAAUCUGCGAAUUCUGCUGUAUAUCUC [U26A G52U],1.08

row,Variant,self-cleavage
1,UAACAGGGGGCCACAGCAGAAGCGUACACGUCGCAGCCCCUGUCAGAUUCUCGUGAAUCUGCGAAUUCUGCUGUAUAUCUC [U26A G52C],1
2,UAACAGGGGGCCACAGCAGAAGCGUACACGUCGCAGCCCCUGUCAGAUUCUAGUGAAUCUGCGAAUUCUGCUGUAUAUCUC [U26A G52A],1.06
3,UAACAGGGGGCCACAGCAGAAGCGUACACGUCGCAGCCCCUGUCAGAUUCGGGUGAAUCUGCGAAUUCUGCUGUAUAUCUC [U26A U51G],0.8
4,UAACAGGGGGCCACAGCAGAAGCGUACACGUCGCAGCCCCUGUCAGAUUCCGGUGAAUCUGCGAAUUCUGCUGUAUAUCUC [U26A U51C],0.84
5,UAACAGGGGGCCACAGCAGAAGCGUACACGUCGCAGCCCCUGUCAGAUUCAGGUGAAUCUGCGAAUUCUGCUGUAUAUCUC [U26A U51A],0.81
6,UAACAGGGGGCCACAGCAGAAGCGUACACGUCGCAGCCCGUGUCAGAUUCUGGUGAAUCUGCGAAUUCUGCUGUAUAUCUC [U26A C40G],0.17
7,UAACAGGGGGCCACAGCAGAAGCGUACACGUCGCAGCCCUUGUCAGAUUCUGGUGAAUCUGCGAAUUCUGCUGUAUAUCUC [U26A C40U],0.59
8,UAACAGGGGGCCACAGCAGAAGCGUACACGUCGCAGCCCAUGUCAGAUUCUGGUGAAUCUGCGAAUUCUGCUGUAUAUCUC [U26A C40A],0.25
9,UAACAGGGGGCCACAGCAGAAGCGUACACGUCGCAGCCCCCGUCAGAUUCUGGUGAAUCUGCGAAUUCUGCUGUAUAUCUC [U26A U41C],0.67
10,UAACAGGGGGCCACAGCAGAAGCGUACACGUCGCAGCCCCGGUCAGAUUCUGGUGAAUCUGCGAAUUCUGCUGUAUAUCUC [U26A U41G],0.33
11,UAACAGGGGGCCACAGCAGAAGCGUACACGUCGCAGCCCCAGUCAGAUUCUGGUGAAUCUGCGAAUUCUGCUGUAUAUCUC [U26A U41A],0.25
12,UAACAGGGGGCCACAGCAGAAGCGUACACGUCGCAGCCCCUGUCAGAGUCUGGUGAAUCUGCGAAUUCUGCUGUAUAUCUC [U26A U48G],0.37
13,UAACAGGGGGCCACAGCAGAAGCGUACACGUCGCAGCCCCUGUCAGACUCUGGUGAAUCUGCGAAUUCUGCUGUAUAUCUC [U26A U48C],0.47
14,UAACAGGGGGCCACAGCAGAAGCGUACACGUCGCAGCCCCUGUCAGAAUCUGGUGAAUCUGCGAAUUCUGCUGUAUAUCUC [U26A U48A],0.35
15,UAACAGGGGGCCACAGCAGAAGCGUACACGUCGCAGCCCCUGUCAGAUUCUGGUGAAUCUGCGAAAUCUGCUGUAUAUCUC [U26A U66A],0.38
16,UAACAGGGGGCCACAGCAGAAGCGUACACGUCGCAGCCCCUGUCAGAUUCUGGUGAAUCUGCGAAGUCUGCUGUAUAUCUC [U26A U66G],0.42
17,UAACAGGGGGCCACAGCAGAAGCGUACACGUCGCAGCCCCUGUCAGAUUCUGGUGAAUCUGCGAACUCUGCUGUAUAUCUC [U26A U66C],0.34
18,UAACAGGGGGCCACAGCAGAAGCGUACACGUCGCAGCCCCUGCCAGAUUCUGGUGAAUCUGCGAAUUCUGCUGUAUAUCUC [U26A U43C],0.29
19,UAACAGGGGGCCACAGCAGAAGCGUACACGUCGCAGCCCCUGACAGAUUCUGGUGAAUCUGCGAAUUCUGCUGUAUAUCUC [U26A U43A],0.39
20,UAACAGGGGGCCACAGCAGAAGCGUACACGUCGCAGCCCCUGGCAGAUUCUGGUGAAUCUGCGAAUUCUGCUGUAUAUCUC [U26A U43G],0.33
21,UAACAGGGGGCCACAGCAGAAGCGUACACGUCGCAGCCCCUGUCAGAUUCUGGUGAAUCCGCGAAUUCUGCUGUAUAUCUC [U26A U60C],0.34
22,UAACAGGGGGCCACAGCAGAAGCGUACACGUCGCAGCCCCUGUCAGAUUCUGGUGAAUCAGCGAAUUCUGCUGUAUAUCUC [U26A U60A],0.52
23,UAACAGGGGGCCACAGCAGAAGCGUACACGUCGCAGCCCCUAUCAGAUUCUGGUGAAUCUGCGAAUUCUGCUGUAUAUCUC [U26A G42A],0.29

row,Variant,self-cleavage
1,UAACAGGGGGCCACAGCAGAAGCGUACACGCCGCAGCCCCUGUCAGAUUCUGGUGAAUCUGCGAAUUCUGCUGUAUAUCUC [U26A U31C],0.69
2,UAACAGGGGGCCACAGCAGAAGCGUACACGACGCAGCCCCUGUCAGAUUCUGGUGAAUCUGCGAAUUCUGCUGUAUAUCUC [U26A U31A],0.34
3,UAACAGGGGGCCACAGCAGAAGCGUACACGUCGCAUCCCCUGUCAGAUUCUGGUGAAUCUGCGAAUUCUGCUGUAUAUCUC [U26A G36U],0.39
4,UAACAGGGGGCCACAGCAGAAGCGUACACGUCGCAGCCCCUGUCAGAUUCUGGUGAAUCUGCGAAUUCAGCUGUAUAUCUC [U26A U69A],0.46
5,UAACAGGGGGCCACAGCAGAAGCGUACACGUCGCAGCCCCUGUCAGAUUCUGGUGAAUCUGCGAAUUCUGCUGUAUAUCUG [U26A C81G],1.1
6,UAACAGGGGGCCACAGCAGAAGCGUACACUUCGCAGCCCCUGUCAGAUUCUGGUGAAUCUGCGAAUUCUGCUGUAUAUCUC [U26A G30U],0.19
7,UAACAGGGGGCCACAGCAGAAGCGUACACCUCGCAGCCCCUGUCAGAUUCUGGUGAAUCUGCGAAUUCUGCUGUAUAUCUC [U26A G30C],0.24
8,UAACAGGGGGCCACAGCAGAAGCGUACACGUCGCAGCCCCUGUCAGAUUCUGGUGAAUCUGCAAAUUCUGCUGUAUAUCUC [U26A G63A],0.74
9,UAACAGGGGGCCACAGCAGAAGCGUACACGUCGCAGCCCCUGUCAGAUUCUGGUGAAUCUGCUAAUUCUGCUGUAUAUCUC [U26A G63U],0.87
10,UAACAGGGGGCCACAGCAGAAGCGUACACGUCGCAGCCCCUGUCAGAUUCUGGUGAAUCUGCGAAUUAUGCUGUAUAUCUC [U26A C68A],0.31
11,UAACAGGGGGCCACAGCAGAAGCGUACACGUCGCAGCCCCUGUCAGAUUCUGGUGAAUCUGCGAAUUUUGCUGUAUAUCUC [U26A C68U],0.79
12,UAACAGGGGGCCACAGCAGAAGCGUACACGUCGCAGCCCCUGUCAGAUUCUGGUGAAUCUGCGAAUUCUCCUGUAUAUCUC [U26A G70C],0.2
13,UAACAGGGGGCCACAGCAGAAGCGUACACGUCGCAGCCCCUGUCAGAUUCUGGUGAAUCUGCGAAUUCUACUGUAUAUCUC [U26A G70A],0.4
14,UAACAGGGGGCCACAGCAGAAGCGUACACGUCGCAGCCCCUGUCAGAUUCUGGUGAAUCUGCGAAUCCUGCUGUAUAUCUC [U26A U67C],0.29
15,UAACAGGGGGCCACAGCAGAAGCGUACACGUCGCAGCCCCUGUCAGAUUCUGGUGAAUCUGCGAAUACUGCUGUAUAUCUC [U26A U67A],0.38
16,UAACAGGGGGCCACAGCAGAAGCGUACACGUCGCAGCCCCUGUCAGAUUCUGGAGAAUCUGCGAAUUCUGCUGUAUAUCUC [U26A U54A],0.82
17,UAACAGGGGGCCACAGCAGAAGCGUACACGUCGCAGCCCCUGUCAGAUUCUGGGGAAUCUGCGAAUUCUGCUGUAUAUCUC [U26A U54G],0.53
18,UAACAGGGGGCCACAGCAGAAGCGUACACGUCGCAGCCCCUGUCAGAUUCUGGCGAAUCUGCGAAUUCUGCUGUAUAUCUC [U26A U54C],0.84
19,UAACAGGGGGCCACAGCAGAAGCGUACACGUCACAGCCCCUGUCAGAUUCUGGUGAAUCUGCGAAUUCUGCUGUAUAUCUC [U26A G33A],0.17
20,UAACAGGGGGCCACAGCAGAAGCGUACACGUCUCAGCCCCUGUCAGAUUCUGGUGAAUCUGCGAAUUCUGCUGUAUAUCUC [U26A G33U],0.1
21,UAACAGGGGGCCACAGCAGAAGCGUACACGUCGCAGCCCCUGUCAGAUUCUGGUGAAUCUGCGAAUUCUGAUGUAUAUCUC [U26A C71A],0.2
22,UAACAGGGGGCCACAGCAGAAGCGUACACGUCGCAGCCCCUGUCAGAUUCUGGUGAAUCUGCGAAUUCUGUUGUAUAUCUC [U26A C71U],0.24
